The data set concerns the target bovine albumin (BSA) (bovine, UniProt P02769 25-607). Briefly: SPR. A general note: In SPR one partner is held on a chip, and binding of the other changes the refractive index at the surface.

Sequence of bovine albumin (BSA) (P02769 25-607): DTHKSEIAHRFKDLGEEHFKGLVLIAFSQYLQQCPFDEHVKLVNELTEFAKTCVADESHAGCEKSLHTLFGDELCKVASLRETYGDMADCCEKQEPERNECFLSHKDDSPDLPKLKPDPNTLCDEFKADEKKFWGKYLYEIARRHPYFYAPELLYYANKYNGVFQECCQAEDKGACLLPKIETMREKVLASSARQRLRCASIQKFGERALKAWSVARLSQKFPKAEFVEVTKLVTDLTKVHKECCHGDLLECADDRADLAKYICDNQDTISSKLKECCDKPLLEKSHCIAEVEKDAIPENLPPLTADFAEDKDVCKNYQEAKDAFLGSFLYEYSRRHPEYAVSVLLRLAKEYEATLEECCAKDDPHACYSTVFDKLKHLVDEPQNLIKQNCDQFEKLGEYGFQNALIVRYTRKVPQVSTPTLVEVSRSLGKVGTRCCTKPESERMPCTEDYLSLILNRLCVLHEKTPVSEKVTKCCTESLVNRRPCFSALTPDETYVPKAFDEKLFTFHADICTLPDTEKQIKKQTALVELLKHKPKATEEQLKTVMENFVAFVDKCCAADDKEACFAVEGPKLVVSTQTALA

B1: N58 aptamer (SARS-CoV-2-N58) (ssDNA)
DNA: GCTGGATGTCACCGGATTGTCGGACATCGGATTGTCTGAGTCATATGACACATCCAGC
B1: the binding result is “no binding”.

The values above are taken from publication PMC8412382.
